# US20250018014A1, “METHOD FOR TREATING AND/OR PREVENTING REGNASE-1-RELATED DISEASE” (OSAKA UNIVERSITY, priority 2018, published 2025)
# Positions of bridges follow the written chain, without caps; N, C: chain ends. Non-standard residues stand in square brackets, D forms with d. *: point of attachment. Pyrrolidide = C1CCN(*)C1; dNMeA = CN[C@H](C)C(=O)O
# T1: full-length human Regnase-1 with a FLAG tag on the N-terminal side and a biotin ligase BirA recognition … (human, UniProt Q5D1E8 1-599, biotinylated at the BirA recognition sequence when required)
# T1 sequence: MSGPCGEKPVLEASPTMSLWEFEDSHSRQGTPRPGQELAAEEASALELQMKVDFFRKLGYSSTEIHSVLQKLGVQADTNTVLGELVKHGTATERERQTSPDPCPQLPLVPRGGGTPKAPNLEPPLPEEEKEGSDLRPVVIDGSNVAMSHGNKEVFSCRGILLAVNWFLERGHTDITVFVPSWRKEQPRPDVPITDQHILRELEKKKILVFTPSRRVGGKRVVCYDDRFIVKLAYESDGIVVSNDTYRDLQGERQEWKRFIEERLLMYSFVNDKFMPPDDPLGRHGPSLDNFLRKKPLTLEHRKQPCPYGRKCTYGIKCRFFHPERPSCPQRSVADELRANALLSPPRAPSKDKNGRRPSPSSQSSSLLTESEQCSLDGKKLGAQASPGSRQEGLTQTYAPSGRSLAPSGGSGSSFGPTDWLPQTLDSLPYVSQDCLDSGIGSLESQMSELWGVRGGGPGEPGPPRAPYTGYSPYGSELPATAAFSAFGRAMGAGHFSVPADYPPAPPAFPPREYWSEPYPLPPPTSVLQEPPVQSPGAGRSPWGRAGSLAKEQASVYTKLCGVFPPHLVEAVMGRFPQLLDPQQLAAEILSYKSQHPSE
# T2: C-terminal domain-deleted human Regnase-1 (amino acids 1 to 546) with N-terminal FLAG tag and C-terminal BirA … (human, UniProt Q5D1E8 1-546)
# T2 sequence: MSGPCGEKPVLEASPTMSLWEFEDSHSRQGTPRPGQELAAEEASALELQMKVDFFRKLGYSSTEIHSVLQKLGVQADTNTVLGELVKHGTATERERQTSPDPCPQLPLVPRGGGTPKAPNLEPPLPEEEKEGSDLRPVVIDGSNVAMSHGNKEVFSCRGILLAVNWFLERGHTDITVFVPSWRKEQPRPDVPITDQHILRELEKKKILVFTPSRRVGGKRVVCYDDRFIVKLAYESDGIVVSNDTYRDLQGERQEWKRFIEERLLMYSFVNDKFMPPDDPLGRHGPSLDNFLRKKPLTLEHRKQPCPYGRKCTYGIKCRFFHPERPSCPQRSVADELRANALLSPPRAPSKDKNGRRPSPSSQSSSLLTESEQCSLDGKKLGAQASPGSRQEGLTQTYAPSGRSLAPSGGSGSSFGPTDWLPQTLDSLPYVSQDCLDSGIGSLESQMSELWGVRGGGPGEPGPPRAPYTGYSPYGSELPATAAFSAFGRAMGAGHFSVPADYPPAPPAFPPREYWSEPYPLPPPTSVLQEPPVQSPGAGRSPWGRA
# T3: C-terminal human Regnase-1 (amino acids 301 to 599) with N-terminal FLAG tag and C-terminal BirA recognition … (human, UniProt Q5D1E8 301-599)
# T3 sequence: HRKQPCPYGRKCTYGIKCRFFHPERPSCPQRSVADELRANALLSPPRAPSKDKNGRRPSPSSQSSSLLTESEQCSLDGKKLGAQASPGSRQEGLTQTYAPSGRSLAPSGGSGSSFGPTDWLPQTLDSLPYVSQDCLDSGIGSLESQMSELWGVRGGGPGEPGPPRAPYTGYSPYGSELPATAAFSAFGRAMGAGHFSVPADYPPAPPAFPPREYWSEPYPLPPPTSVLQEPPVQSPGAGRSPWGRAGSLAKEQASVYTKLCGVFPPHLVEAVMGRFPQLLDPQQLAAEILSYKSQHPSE
# What was measured:
# Assay in all cases: cell-based or functional assay
# [1] = target: T1, full-length human Regnase-1 with a FLAG …
# [2] = target: T2, C-terminal domain-deleted human …
# [3] = target: T3, C-terminal human Regnase-1 (amino acids …)
# [4] = target: T1, full-length human Regnase-1 with a FLAG …; remark: listed apart in the source
# [5] = target: T2, C-terminal domain-deleted human …; remark: listed apart in the source
# [6] = target: T3, C-terminal human Regnase-1 (amino acids …); remark: listed apart in the source
Binder,"50% inhibition concentration, Regnase-1 phosphorylation by IKKβ (AlphaScreen) [1] [µM]","50% inhibition concentration, Regnase-1 phosphorylation by IKKβ (AlphaScreen) [2] [µM]","50% inhibition concentration, Regnase-1 phosphorylation by IKKβ (AlphaScreen) [3] [µM]","50% inhibition concentration, Regnase-1 phosphorylation by TBK1 (AlphaScreen) [4] [µM]","50% inhibition concentration, Regnase-1 phosphorylation by TBK1 (AlphaScreen) [5] [µM]","50% inhibition concentration, Regnase-1 phosphorylation by TBK1 (AlphaScreen) [6] [µM]"
"XSKYWNSWYNIWD (HELM PEPTIDE1{[C[C@H](C(=O)[*:2])N(C)[*:1]].S.K.Y.W.N.S.W.Y.N.I.W.D.[C1CCN([*:1])C1]}$PEPTIDE1,PEPTIDE1,1:R1-13:R3$$$V2.0; SMILES CC[C@H](C)[C@@H]1NC(=O)[C@H](CC(N)=O)NC(=O)[C@H](Cc2ccc(O)cc2)NC(=O)[C@H](Cc2c[nH]c3ccccc23)NC(=O)[C@H](CO)NC(=O)[C@H](CC(N)=O)NC(=O)[C@H](Cc2c[nH]c3ccccc23)NC(=O)[C@H](Cc2ccc(O)cc2)NC(=O)[C@H](CCCCN)NC(=O)[C@H](CO)NC(=O)[C@@H](C)N(C)C(=O)C[C@@H](C(=O)N2CCCC2)NC(=O)[C@H](Cc2c[nH]c3ccccc23)NC1=O) [PP8]",1.4,7.8,5.7,2.9,5.5,6
"XNYQSWYYRSIWD (HELM PEPTIDE1{[meA].N.Y.Q.S.W.Y.Y.R.S.I.W.D.[C1CCN([*:1])C1]}$PEPTIDE1,PEPTIDE1,1:R1-13:R3$$$V2.0; SMILES CC[C@H](C)[C@@H]1NC(=O)[C@H](CO)NC(=O)[C@H](CCCNC(=N)N)NC(=O)[C@H](Cc2ccc(O)cc2)NC(=O)[C@H](Cc2ccc(O)cc2)NC(=O)[C@H](Cc2c[nH]c3ccccc23)NC(=O)[C@H](CO)NC(=O)[C@H](CCC(N)=O)NC(=O)[C@H](Cc2ccc(O)cc2)NC(=O)[C@H](CC(N)=O)NC(=O)[C@H](C)N(C)C(=O)C[C@@H](C(=O)N2CCCC2)NC(=O)[C@H](Cc2c[nH]c3ccccc23)NC1=O) [PP10]",0.5,2.6,1.8,0.2,0.2,0.4
"XNFNSAYYRAIWD (HELM PEPTIDE1{[meA].N.F.N.S.A.Y.Y.R.A.I.W.D.[C1CCN([*:1])C1]}$PEPTIDE1,PEPTIDE1,1:R1-13:R3$$$V2.0; SMILES CC[C@H](C)[C@@H]1NC(=O)[C@H](C)NC(=O)[C@H](CCCNC(=N)N)NC(=O)[C@H](Cc2ccc(O)cc2)NC(=O)[C@H](Cc2ccc(O)cc2)NC(=O)[C@H](C)NC(=O)[C@H](CO)NC(=O)[C@H](CC(N)=O)NC(=O)[C@H](Cc2ccccc2)NC(=O)[C@H](CC(N)=O)NC(=O)[C@H](C)N(C)C(=O)C[C@@H](C(=O)N2CCCC2)NC(=O)[C@H](Cc2c[nH]c3ccccc23)NC1=O) [PP7]",0.8,4.5,3,2.2,4.7,4.6
[dNMeA]TYGHSSWYKIWD-Pyrrolidide (lactam N-13) [PP9],2.7,6.4,6.2,4.2,6.6,7.9
